System: AMPKα
Test: Time course immunoblot of p-AMPKα (Thr172)/total AMPKα in primary human TM cell lysates
Format: cell-based
Protocol: Primary human trabecular meshwork (TM) cells were isolated, in accordance with the Declaration of Helsinki, and maintained in culture as described previously.^63 Independent primary human TM cell lines were generated from donors ranging in age from 35 to 72 years and no known history of ocular disease. Cell cultures were maintained, unless otherwise stated, in Dulbecco's modified eagle medium (Life Technologies, Grand Island, N.Y.) containing 20% fetal bovine serum, 1% L-glutamine (2 mM), and gentamicin (0.1 mg/ml) at 37° C. in a 10% CO2 atmosphere. Only TM cells from third through fifth passage were used. All experiments were performed using at least three different primary human TM cell lines.
At the conclusion of each experiment for matricellular and ECM protein detection, conditioned media (CM) from TM cell cultures was harvested and centrifuged at 5000 rpm for 10 minutes at 4° C. The supernatant was then concentrated (Amicon Ultra-4 Filter Unit, 10 kDa; Millipore, Milford, Mass.), and protein content quantified using the DC Protein Assay kit adhering to manufacturer's protocols (Bio-Rad, Hercules, Calif.). For AMPK protein detection, cells were lysed for 3 minutes on ice with cold 1×RIPA buffer containing 0.5% Aprotinin, 0.1% EDTA, 1% EGTA, 0.5% PMSF, and 0.01% Leupeptin. Samples were then centrifuged at 14,000 rpm for 15 minutes at 4° C. and protein content quantified. In all experiments, equal amounts of protein were treated with 6× reducing buffer and boiled for 5 minutes. Samples were then electrophoresed in 10% SDS-polyacrylamide gels, alongside a pre-stained protein marker (Cell Signaling Technology Inc., Danvers, Ma). For conditioned media loading control, the resultant gels were stained with 0.1% Coomassie Brilliant Blue G-250 (Bio-Rad, Hercules Calif.) for 3 hours and were destained with fixing/destaining solution until clear bands were visible and contrasted well with the true blue background. Otherwise, proteins were transferred to nitrocellulose membranes (0.45-μm pore size; Invitrogen). […] The membranes were then washed three times with 1×TBS-T, scanned, and integrated band intensities were calculated using an infrared imaging system (Odyssey; Li-Cor, Lincoln, Nebr.). […]

B1: TGF-β2: activated transforming growth factor-β2 (R&D Systems) used to stimulate TM cells (protein, UniProt P61812 303-414, looked up)
Transforming growth factor …: ALDAAYCFRNVQDNCCLRPLYIDFKRDLGWKWIHEPKGYNANFCAGACPYLWSSDTQHSRVLSLYNTINPEASASPCCVSQDLEPLTILYYIGKTPKIEQLSNMIVKSCKCS
Which results are given for B1?
phospho-total AMPK ratio difference vs zero time point (2.5 ng/mL TGF-β2, at 30 minutes): no longer significant; decrease of phospho-total AMPK ratio, normalized to the zero time point (2.5 ng/mL TGF-β2, within 15 minutes, human TM cells): 30%
